The series relates to SphI restriction endonuclease (recombinant, NEB#808 / pEGsph50-2; gene within SEQ ID NO:2) (Streptomyces phaeochromogenes). In words: cleavage_in_vitro. As to conditions: 150 units, 4 h, 37 C; nonspecific endonuclease control.

A value given as a limit tells only on which side of the number the result lay.

phiX174 RFI DNA: the activity (% converted to RF II) is below 25.

These data come from patent US5262318.
